PMC7552008

What was measured:
NS1 RBD H7N9 = NS1 RBD H7N9 (Influenza A virus (H7N9), UniProt S4VCY8 1-73); experiment: EMSA; conditions: protein: recombinant; tags: N-His thrombin-cleaved; chain copies: 2; label: 5'-32P
NS1 RBD H17N10 = NS1 RBD H17N10 (Influenza A virus (H17N10), UniProt H6QM79 1-73); experiment: EMSA; conditions: protein: recombinant; tags: N-His thrombin-cleaved; chain copies: 2; label: 5'-32P
NS1 RBD H7N1 [1] = molecular target: T1, NS1 RBD H7N1 (Influenza A virus (avian H7N1; allele B), UniProt Q1PST0 1-73); experiment: EMSA; conditions: protein: recombinant; tags: N-His thrombin-cleaved (vector residues remain); chain copies: 2; label: 5'-32P
NS1 RBD H7N1 [2] = molecular target: T1, NS1 RBD H7N1; experiment: competition EMSA; EC50app vs labelled AWFC01; conditions: protein: recombinant, tags: N-His thrombin-cleaved (vector residues remain), chain copies: 2
NS1 RBD H7N1 [3] = molecular target: T1, NS1 RBD H7N1; experiment: X-ray crystallography; 2.30 A; 2 M ammonium sulfate; conditions: protein: recombinant; tags: N-His thrombin-cleaved (vector residues remain); chain copies: 2

B1: AWFC01 (dsRNA)
RNA 1: GGUAACUGUUACAGUUACC
RNA 2: GGUAACUGUUACAGUUACC
- Kd (NS1 RBD H7N9): 3.1 ± 0.1 nM
- Kd (NS1 RBD H17N10): 1.5 ± 0.1 nM
- Kd (NS1 RBD H7N1 [1]): 0.83 ± 0.03 nM
- IC50 (NS1 RBD H7N1 [2]; label: 5'-32P): 1.7 ± 0.1 nM

B2: ZKO (dsRNA)
RNA 1: AGACAGCAUUAUGCUGUCUUU
RNA 2: AGACAGCAUUAUGCUGUCUUU
- IC50 (NS1 RBD H7N1 [2]): 96 ± 3 nM

B3: DM01-mot A (ssRNA)
RNA: AGCAAAAG
- binding result (NS1 RBD H7N1 [1]): no binding

B4: DM03-mot B (ssRNA)
RNA: UGAUUGAAG
- binding result (NS1 RBD H7N1 [1]): no binding

B5: ZKO* (dsRNA)
RNA 1: AGACAGCAUUAUGCUGUCU
RNA 2: AGACAGCAUUAUGCUGUCU
- binding result (NS1 RBD H7N1 [3]): binds
